Assay results as given in FireProtDB (doi:10.1016/0167-4838(93)90045-s).

Conditions: Carica papaya, Thermal, DSC, glycine 0.05M, reversible: No

Chymopapain wild type, P14080, sequence (P14080 whole entry): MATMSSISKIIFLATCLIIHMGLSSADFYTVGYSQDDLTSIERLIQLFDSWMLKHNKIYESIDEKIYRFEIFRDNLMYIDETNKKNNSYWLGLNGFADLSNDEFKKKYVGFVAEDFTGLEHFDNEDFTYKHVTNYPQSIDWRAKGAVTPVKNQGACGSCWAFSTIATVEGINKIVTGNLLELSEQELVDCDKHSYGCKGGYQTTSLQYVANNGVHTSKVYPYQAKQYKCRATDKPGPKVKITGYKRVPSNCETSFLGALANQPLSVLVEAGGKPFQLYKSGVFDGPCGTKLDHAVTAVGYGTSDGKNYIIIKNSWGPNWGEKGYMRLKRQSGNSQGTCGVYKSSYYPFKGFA

For Chymopapain wild type, P14080, the Tm (pH 1.2) was 43 °C, the “unfolding enthalpy (calorimetric)” value (pH 1.2) was 105 kcal/mol and the Tm (pH 1.91) was 56.9 °C. For the same substance, the “unfolding enthalpy (calorimetric)” value (pH 1.91) was 138 kcal/mol, the Tm (pH 2.2) was 62 °C and the “unfolding enthalpy (calorimetric)” value (pH 2.2) was 144 kcal/mol. For the same substance, the Tm (pH 2.35) was 67.9 °C, the “unfolding enthalpy (calorimetric)” value (pH 2.35) was 161 kcal/mol and the Tm (pH 2.56) was 75.2 °C. The “unfolding enthalpy (calorimetric)” value (pH 2.56) was 174 kcal/mol, the Tm (pH 3.18) was 81.1 °C and the “unfolding enthalpy (calorimetric)” value (pH 3.18) was 193 kcal/mol. For the same substance, the Tm (pH 3.45) was 83.7 °C and the “unfolding enthalpy (calorimetric)” value (pH 3.45) was 199 kcal/mol.
